Patent publication US20250002587A1 (University of California, published 2025)
Substitutions are numbered along the chain they refer to. Like-named read-outs stand apart in the source and are kept apart here.

B1: ADWA16 (antibody, V domains shown)
VH: QVQLQQSGAELAKPGASMKMSCKASGYTFSSYWIYWVKQRPGQGLEWIGYINPTTGYTEYNQKFRDKATLTADKSSNTAYMQLSSLTSEDSAVYYCATEGGNWEDYWGQGTTLTVSS
VL: DIQMTQTTSSLSASLGDRVTISCRASQDISNYLNWYQQKPDGTVKLLIYYTSRLYSGVPSRFSGSGSGTDYSLTISNLEPKDIATYYCQQFSELPRTFGGGTKLEIK
notes: Murine IgG, detected with anti-mouse secondary antibody; also called parent murine IgG; murine parent ADWA16
B2: ADWA16-chimera (antibody, V domains shown)
VH: B1 VH
VL: B1 VL
notes: It was captured on anti-human Fab-CH1 tips and detected with anti-human secondary, so it has human constant regions; also called chimeric ADWA-16; chimeric version of the parent ADWA16 murine IgG
B3: ADWA11 (antibody, V domains shown)
VH: EVQLQQSGAELVRPGAFVKLSCKASGFNIKDYYMNWVLQRPEQGLEWIGWIDPDNGNTIYDPKFQGKASITADTSSNTAYLQLSSLTSEDTAVYYCARRLLMDYWGQGTSVTVSS
VL: DIVMTQAAPSVPVTPGESVSISCRSTKSLLHFNGNTYLFWFLQRPGQSPQRLIYYMSNLASGVPDRFSGRGSGTDFTLRISRVEAEDVGVYYCMQSLEYPFTFGTGTKLEIK
notes: IgG; also called ADWA1l
B4: ADWA16-3 (antibody, V domains shown)
VH: EVQLVESGGGLVQPGGSLRLSCAVSGYIFSSYWVYWVRQAPGKGLEWVGYINPTTGYTEYADSVKGRFTISRDNSKNTLYLQMNSLRAEDTAVYYCATEGGNWEDYWGQGTLVTVSS
VL: DIQMTQSPSSLSASVGDRVTITCRASQDISNYINWYQQKPGKAPKLLIYYTSRLYGGVPSRFSGSGSGTDFTLTISSLQPEDFATYYCQQFSELPRTFGQGTKVEIK
B5: ADWA16-3.2 (antibody, V domains shown)
VH: B4 VH with N52S, E59V
VL: B4 VL
notes: also called humanized derivative of ADWA16
B6: ADWA16-2 (antibody, V domains shown)
VH: B4 VH
VL: B4 VL with Q27K, I33L, G56S
B7: ADWA16-4 (antibody, V domains shown)
VH: B4 VH
VL: B4 VL with Q27K
B8: ADWA16-1 (antibody, V domains shown)
VH: B4 VH
VL: B4 VL with G56S

Assays:
[1] = target: T1, cell surface-expressed human αvβ8 (human, UniProt P06756 31-1048; P26012 43-769); assay: FACS titration on SNB19 human astrocytoma cells
T1 construct: whole, on cells; also called αvβ8 on SNB19 human astrocytoma cells
Experimental: (§1) The affinities of humanized, affinity-matured anti-αvβ8 IgGs (ADWA16-1, ADWA16-2, ADWA16-3, and ADWA16-4), a chimeric version of the parent ADWA16 murine IgG (ADWA16-chimera), and ADWA16 were measured on SNB19 human astrocytoma cells by FACS. IgGs were incubated at various concentrations with SNB19 cells for 1 hr at RT in PBS. Cells were washed twice with PBS and binding was detected by incubation with fluorescently-labeled anti-human (ADWA16-1, ADWA16-2, ADWA16-3, ADWA16-4, and ADWA16-chimera) or anti-mouse (ADWA16) secondary antibodies followed by two PBS wash steps and analysis by FACS. Binding affinities (shown in Table 3) were calculated using curve-fitting software.

[2] = target: T1, cell surface-expressed human αvβ8; assay: cell-based or functional assay
[3] = target: T2, recombinant mouse αvβ8 (mouse, UniProt P43406 31-988; Q0VBD0 43-681, limits assumed); assay: bio-layer interferometry, IgG on anti-human Fab-CH1 tips, αvβ8 200 nM
T2 construct: Soluble recombinant heterodimer used as analyte at 200 nM in BLI
Experimental: (§2) The affinities of humanized, affinity-matured anti-αvβ8 IgGs (ADWA16-3 and ADWA16-3.2) and a chimeric version of the parent ADWA16 murine IgG (ADWA16-chimera) were measured for recombinant human and mouse αvβ8 using bio-layer interferometry. Anti-human Fab-CH1 tips were loaded with humanized anti-αvβ8 IgGs or chimeric ADWA16 followed by an association step with either human or mouse αvβ8 (200 nM) and a subsequent dissociation step. All steps were carried out in binding buffer (25 mM Tris, 0.15 M NaCl, 0.05% Tween-20, pH 7.5). Binding affinities (shown in Table 4) were calculated using curve-fitting software.

[4] = target: T3, recombinant human αvβ8 (human, UniProt P06756 31-992; P26012 43-684); assay: as above
T3 construct: Soluble recombinant heterodimer used as analyte at 200 nM in BLI
Experimental: as §2

[5] = target: T2, recombinant mouse αvβ8; assay: as above; remark: listed apart in the source
Experimental: (§3) The affinities of humanized, affinity-matured anti-αvβ8 IgGs (ADWA16-1, ADWA16-2, ADWA16-3, and ADWA16-4) and a chimeric version of the parent ADWA-16 murine IgG (ADWA16-chimera) were measured for recombinant human and mouse αvβ8 using bio-layer interferometry. Anti-human Fab-CH1 tips were loaded with humanized anti-αvβ8 IgGs (ADWA16-1, ADWA16-2, ADWA16-3, and ADWA16-4) or chimeric ADWA-16 followed by an association step with either human or mouse αvβ8 (200 nM) and a subsequent dissociation step. All steps were carried out in binding buffer (25 mM Tris, 0.15 M NaCl, 0.05% Tween-20, pH 7.5). Binding affinities (shown in Table 2) were calculated using curve-fitting software. FIGS. 3A-3E show association/dissociation curves for each antibody.

[6] = target: T3, recombinant human αvβ8; assay: as above; remark: listed apart in the source
Experimental: as §3

[7] = target: T1, cell surface-expressed human αvβ8; assay: FACS titration on SNB19 human astrocytoma cells; Example 13 FACS on SNB19 cells; detected with anti-human secondary, ADWA11 format not stated
Experimental: (§4) The affinities of ADWA16-3.2 and ADWA11 were measured on SNB19 human astrocytoma cells by FACS. IgGs were incubated at various concentrations with SNB19 cells for 1 hour at RT in PBS. Cells were washed twice with PBS and binding was detected by incubation with fluorescently-labeled anti-human secondary antibodies followed by two PBS wash steps and analysis by FACS. Binding affinities were calculated using curve-fitting software.

[8] = target: T4, surface-expressed mouse αvβ8 on murine astrocytes (mouse, UniProt P43406 31-1044; Q0VBD0 22-767); assay: FACS titration on murine astrocytes
T4 construct: whole, on cells
Experimental: The affinities of ADWA16, ADWA11, and ADWA16-3.2 were measured on murine astrocytes by FACS. IgGs were incubated at various concentrations with the cells for 1 hr at RT in PBS. Cells were washed twice with PBS and binding was detected by incubation with fluorescently-labeled anti-human or anti-mouse secondary antibodies followed by two PBS wash steps and analysis by FACS.

[9] = target: T1, cell surface-expressed human αvβ8; assay: FACS on SNB19 human astrocytoma cells, fluorescent secondary antibody
Experimental: as §4

[10] = target: T1, cell surface-expressed human αvβ8; assay: FACS titration on SNB19 human astrocytoma cells; Table 3 FACS series on SNB19 cells, run beside ADWA16, 16-chimera and 16-1 to 16-4
Experimental: as §1

[11] = target: T5, cell surface expressed human αvβ3 (SW480 cells transfected to express αvβ3) (human, UniProt P06756 31-1048; P05106 27-788); assay: flow cytometry on transfected SW480 cells
T5 construct: whole, on cells
Experimental: (§5) The binding of ADWA16 and ADWA16-3.2 to cell surface expressed human αvβ3, αvβ5, αvβ6, and αvβ8 was tested by FACS. Flow cytometry was performed with either ADWA16-3 or ADWA16-3.2 with mock transfected SW480 cells (that express only αvβ5 integrin). SW480 cells were also transfected to express αvβ3 or αvβ6. SNB19 cells expressed αvβ3, αvβ5, and αvβ8.

[12] = target: T6, cell surface expressed human αvβ6 (SW480 cells transfected to express αvβ6) (human, UniProt P06756 31-1048; P18564 22-788); assay: flow cytometry on transfected SW480 cells
T6 construct: whole, on cells
Experimental: as §5

[13] = target: T7, cell surface expressed human αvβ5 (mock transfected SW480 cells) (human, UniProt P06756 31-1048; P18084 24-799); assay: flow cytometry on mock transfected SW480 cells (express only αvβ5); panel head 'A09 SW antihuman con'
T7 construct: whole, on cells
Experimental: as §5

[14] = target: T1, cell surface-expressed human αvβ8; assay: FACS titration on SNB19 human astrocytoma cells; Example 7 FACS series on SNB19 cells, run beside ADWA16-3.2
Experimental: as §4, with “humanized, affinity-matured,” for “ADWA16-3.2”, “N-glycosylation site removed anti-αvβ8 IgGs (ADWA16-3 and ADWA16-3.2)” for “ADWA11”, “hr” for “hour”, “FACS.” for “FACS. Binding affinities were calculated using curve-fitting software.”

[15] = target: T1, cell surface-expressed human αvβ8; assay: FACS titration on SNB19 human astrocytoma cells; Example 7 FACS series on SNB19 cells, run beside ADWA16-3
Experimental: as §4, with “humanized, affinity-matured,” for “ADWA16-3.2”, “N-glycosylation site removed anti-αvβ8 IgGs (ADWA16-3 and ADWA16-3.2)” for “ADWA11”, “hr” for “hour”, “FACS.” for “FACS. Binding affinities were calculated using curve-fitting software.”

[16] = target: T1, cell surface-expressed human αvβ8; assay: FACS titration on SNB19 human astrocytoma cells; Example 13 FACS series on SNB19 cells, run beside ADWA11
Experimental: as §4

T1 sequence (P06756 31-1048, chain 1 of 2): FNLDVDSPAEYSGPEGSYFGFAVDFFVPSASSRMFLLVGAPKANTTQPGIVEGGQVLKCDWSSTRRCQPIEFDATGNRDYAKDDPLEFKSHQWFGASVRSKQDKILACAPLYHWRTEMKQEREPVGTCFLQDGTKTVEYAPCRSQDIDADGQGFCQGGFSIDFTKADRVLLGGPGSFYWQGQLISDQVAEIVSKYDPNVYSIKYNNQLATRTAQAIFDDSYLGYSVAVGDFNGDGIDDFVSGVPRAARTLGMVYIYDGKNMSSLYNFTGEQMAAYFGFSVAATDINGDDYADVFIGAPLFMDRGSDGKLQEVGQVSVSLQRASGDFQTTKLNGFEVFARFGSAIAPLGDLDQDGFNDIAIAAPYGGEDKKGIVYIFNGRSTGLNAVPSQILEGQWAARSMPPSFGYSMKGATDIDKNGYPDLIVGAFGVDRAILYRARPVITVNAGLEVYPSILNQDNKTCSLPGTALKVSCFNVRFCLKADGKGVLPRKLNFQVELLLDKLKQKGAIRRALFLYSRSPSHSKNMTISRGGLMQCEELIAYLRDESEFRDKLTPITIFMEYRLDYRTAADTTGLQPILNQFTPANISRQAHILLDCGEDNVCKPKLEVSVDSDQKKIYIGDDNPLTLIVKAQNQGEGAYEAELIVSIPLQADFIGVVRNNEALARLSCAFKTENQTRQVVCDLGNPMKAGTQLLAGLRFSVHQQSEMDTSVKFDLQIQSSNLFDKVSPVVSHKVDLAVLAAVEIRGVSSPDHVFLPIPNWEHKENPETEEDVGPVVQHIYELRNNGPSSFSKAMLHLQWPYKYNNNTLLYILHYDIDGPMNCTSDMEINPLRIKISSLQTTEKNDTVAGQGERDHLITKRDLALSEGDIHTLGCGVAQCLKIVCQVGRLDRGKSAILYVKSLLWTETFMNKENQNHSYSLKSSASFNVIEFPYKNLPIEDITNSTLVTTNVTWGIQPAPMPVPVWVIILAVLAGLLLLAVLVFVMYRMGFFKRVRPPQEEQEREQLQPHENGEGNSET
T1 sequence (P26012 43-769, chain 2 of 2): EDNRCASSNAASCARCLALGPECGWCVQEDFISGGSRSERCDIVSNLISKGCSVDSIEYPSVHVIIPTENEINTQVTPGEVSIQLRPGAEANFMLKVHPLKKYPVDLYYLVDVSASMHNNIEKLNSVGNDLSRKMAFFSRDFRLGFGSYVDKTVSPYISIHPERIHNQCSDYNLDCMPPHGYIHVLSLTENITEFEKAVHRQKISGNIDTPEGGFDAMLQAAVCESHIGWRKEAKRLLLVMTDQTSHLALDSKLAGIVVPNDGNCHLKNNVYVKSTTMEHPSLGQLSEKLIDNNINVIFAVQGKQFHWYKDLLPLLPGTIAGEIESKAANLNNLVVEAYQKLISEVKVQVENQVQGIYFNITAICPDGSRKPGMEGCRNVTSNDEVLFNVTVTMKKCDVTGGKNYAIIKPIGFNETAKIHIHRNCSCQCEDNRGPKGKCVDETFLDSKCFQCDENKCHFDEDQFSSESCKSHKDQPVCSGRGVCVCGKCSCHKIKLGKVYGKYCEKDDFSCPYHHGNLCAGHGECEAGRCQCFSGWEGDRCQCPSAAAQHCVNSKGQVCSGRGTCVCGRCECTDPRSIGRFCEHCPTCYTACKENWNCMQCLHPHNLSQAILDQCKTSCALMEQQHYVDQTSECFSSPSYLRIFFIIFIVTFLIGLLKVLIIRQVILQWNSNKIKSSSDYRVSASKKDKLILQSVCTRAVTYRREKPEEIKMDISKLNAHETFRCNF
T2 sequence (P43406 31-988 limits assumed, chain 1 of 2): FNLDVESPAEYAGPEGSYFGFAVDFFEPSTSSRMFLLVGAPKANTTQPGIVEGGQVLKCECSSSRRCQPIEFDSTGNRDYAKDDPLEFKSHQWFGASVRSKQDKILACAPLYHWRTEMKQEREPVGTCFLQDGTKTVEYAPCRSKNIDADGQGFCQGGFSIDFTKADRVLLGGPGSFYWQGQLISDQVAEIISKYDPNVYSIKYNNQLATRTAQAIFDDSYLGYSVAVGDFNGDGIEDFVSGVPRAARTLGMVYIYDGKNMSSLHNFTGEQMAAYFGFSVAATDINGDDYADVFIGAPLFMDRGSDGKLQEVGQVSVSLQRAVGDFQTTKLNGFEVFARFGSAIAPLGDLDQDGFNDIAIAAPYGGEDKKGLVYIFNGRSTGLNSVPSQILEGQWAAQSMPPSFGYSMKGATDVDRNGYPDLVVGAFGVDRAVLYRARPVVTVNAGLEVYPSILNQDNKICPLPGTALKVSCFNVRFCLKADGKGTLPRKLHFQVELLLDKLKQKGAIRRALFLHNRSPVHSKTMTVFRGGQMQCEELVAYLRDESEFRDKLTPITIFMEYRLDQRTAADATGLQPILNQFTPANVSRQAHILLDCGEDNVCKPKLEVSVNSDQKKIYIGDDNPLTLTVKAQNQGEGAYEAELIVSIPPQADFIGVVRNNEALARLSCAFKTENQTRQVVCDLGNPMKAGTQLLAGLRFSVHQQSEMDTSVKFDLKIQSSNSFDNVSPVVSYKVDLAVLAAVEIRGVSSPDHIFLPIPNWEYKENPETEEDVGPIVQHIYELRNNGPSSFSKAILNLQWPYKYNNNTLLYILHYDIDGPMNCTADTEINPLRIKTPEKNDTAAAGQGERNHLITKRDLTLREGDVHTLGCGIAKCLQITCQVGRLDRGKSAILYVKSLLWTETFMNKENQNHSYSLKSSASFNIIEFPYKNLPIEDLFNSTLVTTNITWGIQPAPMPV
T2 sequence (Q0VBD0 43-681 limits assumed, chain 2 of 2): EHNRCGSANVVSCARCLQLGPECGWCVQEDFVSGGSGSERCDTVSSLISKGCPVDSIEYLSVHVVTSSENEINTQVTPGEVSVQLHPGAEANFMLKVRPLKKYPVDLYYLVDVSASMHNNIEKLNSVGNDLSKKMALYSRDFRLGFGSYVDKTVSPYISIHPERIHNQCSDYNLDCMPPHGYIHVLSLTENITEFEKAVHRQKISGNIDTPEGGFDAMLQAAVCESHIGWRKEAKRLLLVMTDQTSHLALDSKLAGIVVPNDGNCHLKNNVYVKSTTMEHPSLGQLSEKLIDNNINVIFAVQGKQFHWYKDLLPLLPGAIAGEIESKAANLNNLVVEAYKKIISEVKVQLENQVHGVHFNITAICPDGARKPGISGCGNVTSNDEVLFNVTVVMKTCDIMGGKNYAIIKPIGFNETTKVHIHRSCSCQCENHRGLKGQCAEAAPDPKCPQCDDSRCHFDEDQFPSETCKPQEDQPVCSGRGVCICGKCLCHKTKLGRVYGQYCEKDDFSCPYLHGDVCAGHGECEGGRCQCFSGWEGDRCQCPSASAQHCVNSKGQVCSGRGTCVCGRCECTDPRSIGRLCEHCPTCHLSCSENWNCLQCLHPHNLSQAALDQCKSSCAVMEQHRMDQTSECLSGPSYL
T3 sequence (P06756 31-992 limits assumed, chain 1 of 2): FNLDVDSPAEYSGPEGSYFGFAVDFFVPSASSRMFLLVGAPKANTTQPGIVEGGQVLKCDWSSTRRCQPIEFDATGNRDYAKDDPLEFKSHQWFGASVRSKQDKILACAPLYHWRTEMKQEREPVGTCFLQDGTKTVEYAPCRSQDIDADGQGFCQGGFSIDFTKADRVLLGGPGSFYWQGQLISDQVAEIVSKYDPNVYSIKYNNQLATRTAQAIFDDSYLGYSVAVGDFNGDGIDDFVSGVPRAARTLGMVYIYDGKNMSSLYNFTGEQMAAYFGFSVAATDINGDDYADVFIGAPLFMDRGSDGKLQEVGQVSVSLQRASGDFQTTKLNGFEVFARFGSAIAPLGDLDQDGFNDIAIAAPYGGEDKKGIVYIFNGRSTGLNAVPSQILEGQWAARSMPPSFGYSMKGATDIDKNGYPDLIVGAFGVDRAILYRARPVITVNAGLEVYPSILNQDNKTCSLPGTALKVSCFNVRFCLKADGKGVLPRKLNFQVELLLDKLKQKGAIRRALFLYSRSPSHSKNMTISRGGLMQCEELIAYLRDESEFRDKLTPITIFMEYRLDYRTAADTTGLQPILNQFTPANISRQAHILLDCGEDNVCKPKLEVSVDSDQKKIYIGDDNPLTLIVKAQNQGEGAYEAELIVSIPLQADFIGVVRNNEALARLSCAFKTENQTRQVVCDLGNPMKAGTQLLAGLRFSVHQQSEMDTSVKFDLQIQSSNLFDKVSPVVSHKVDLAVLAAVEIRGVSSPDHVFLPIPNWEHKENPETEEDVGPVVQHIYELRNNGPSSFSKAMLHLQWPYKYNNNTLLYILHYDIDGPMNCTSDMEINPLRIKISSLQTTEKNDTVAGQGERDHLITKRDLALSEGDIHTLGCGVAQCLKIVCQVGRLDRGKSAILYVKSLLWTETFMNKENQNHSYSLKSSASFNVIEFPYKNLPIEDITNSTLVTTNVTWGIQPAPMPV
T3 sequence (P26012 43-684 limits assumed, chain 2 of 2): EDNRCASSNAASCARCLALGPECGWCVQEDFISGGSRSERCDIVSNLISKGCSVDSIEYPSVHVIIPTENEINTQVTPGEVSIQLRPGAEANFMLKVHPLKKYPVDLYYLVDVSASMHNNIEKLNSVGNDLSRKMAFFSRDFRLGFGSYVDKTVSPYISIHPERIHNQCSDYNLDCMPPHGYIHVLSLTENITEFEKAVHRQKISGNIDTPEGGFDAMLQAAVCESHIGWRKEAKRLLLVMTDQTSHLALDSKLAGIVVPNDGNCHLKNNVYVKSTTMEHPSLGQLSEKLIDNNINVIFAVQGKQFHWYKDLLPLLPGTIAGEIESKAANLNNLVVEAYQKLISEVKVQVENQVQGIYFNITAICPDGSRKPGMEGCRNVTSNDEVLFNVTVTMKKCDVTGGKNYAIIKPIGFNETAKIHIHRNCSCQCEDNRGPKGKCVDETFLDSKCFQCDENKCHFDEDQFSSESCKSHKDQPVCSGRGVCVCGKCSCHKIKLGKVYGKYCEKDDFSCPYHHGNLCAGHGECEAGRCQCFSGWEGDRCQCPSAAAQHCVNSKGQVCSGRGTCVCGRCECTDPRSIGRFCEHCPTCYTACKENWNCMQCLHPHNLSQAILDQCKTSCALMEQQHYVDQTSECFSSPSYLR

Row | Binder | Kd [1] [nM] | IC50, inhibition of TGFβ activation (SNB19 / TMLC luciferase reporter co-culture) [2] [nM] | Kd [3] [nM] | Kd [4] [nM] | Kd [5] [nM] | Kd [6] [nM] | further results
1 | B1 | 0.417 | 0.364 |  |  |  |  | IC50, inhibition of SNB19 cell adhesion to TGFβ1-LAP [2]: 1.1 nM; inhibition of adhesion of L229 cells to LAP (potency relative to ADWA11) [2]: ~10 fold
2 | B2 | 0.302 |  | 21 | 0.95 | 21 | 0.95 | 
3 | B3 |  |  |  |  |  |  | Kd [7]: 1.04 nM; Kd [8]: 5.6 nM; EC50 (read off the curve) [9]: ~1 nM; IC50, inhibition of SNB19 cell adhesion to TGFb1 LAP [2]: 1.44 nM
4 | B4 |  | 1.36 | 3.15 | 1.16 | 5 | 0.83 | Kd [10]: 0.389 nM; binding result [11]: no binding; binding result [12]: no binding; binding result [13]: no binding; Kd [14]: 0.83 nM
5 | B5 |  | 0.58 | 1.06 | 0.688 |  |  | binding result [11]: no binding; binding result [12]: no binding; Kd [8]: 1.1 nM; Kd [15]: 0.512 nM; binding result [13]: no binding; Kd [16]: 0.392 nM; EC50 (read off the curve) [9]: ~0.4 nM; IC50, inhibition of SNB19 cell adhesion to TGFb1 LAP [2]: 0.65 nM; IC50, inhibition of SNB19 cell adhesion to TGFβ1-LAP [2]: 2.1 nM
6 | B6 | 0.498 |  |  |  | 8.5 | 2 | 
7 | B7 | 0.614 |  |  |  | 8 | 0.86 | 
8 | B8 | 0.459 |  |  |  | 4.8 | 0.73 | 
